From patent US20110055976

Test system: SUMO1-trypsinogen fusion, chloroplast-targeted, extracted from N. benthamiana leaves and refolded
Sequence (chain, as listed by the source): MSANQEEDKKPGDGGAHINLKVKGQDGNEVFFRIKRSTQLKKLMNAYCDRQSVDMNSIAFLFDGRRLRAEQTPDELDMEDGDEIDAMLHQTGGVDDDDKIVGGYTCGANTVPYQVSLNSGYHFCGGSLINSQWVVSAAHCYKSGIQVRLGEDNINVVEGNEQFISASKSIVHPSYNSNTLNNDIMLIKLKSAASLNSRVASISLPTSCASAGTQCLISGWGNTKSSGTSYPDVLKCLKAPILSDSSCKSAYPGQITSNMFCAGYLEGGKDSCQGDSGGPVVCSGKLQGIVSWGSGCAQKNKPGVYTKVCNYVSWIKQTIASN

## enterokinase (Sigma, cat. no. E0885)
  kinetics of BAPNA cleavage (absorption at 405 nm) after enterokinase treatment of the folding reaction: refolded and enterokinase-treated SUMO1-trypsinogen fusion produces active trypsin capable of digesting the substrate BAPNA
